According to patent publication US20170368136:

Columns and labels:
CN19 S12A = test system: T1, CN19 S12A
T1 sequence: KRPPKLGQIGRAKRVVIED

CN19 = test system: T2, CN19
T2 sequence: KRPPKLGQIGRSKRVVIED

Sequence of CaMKII (chain): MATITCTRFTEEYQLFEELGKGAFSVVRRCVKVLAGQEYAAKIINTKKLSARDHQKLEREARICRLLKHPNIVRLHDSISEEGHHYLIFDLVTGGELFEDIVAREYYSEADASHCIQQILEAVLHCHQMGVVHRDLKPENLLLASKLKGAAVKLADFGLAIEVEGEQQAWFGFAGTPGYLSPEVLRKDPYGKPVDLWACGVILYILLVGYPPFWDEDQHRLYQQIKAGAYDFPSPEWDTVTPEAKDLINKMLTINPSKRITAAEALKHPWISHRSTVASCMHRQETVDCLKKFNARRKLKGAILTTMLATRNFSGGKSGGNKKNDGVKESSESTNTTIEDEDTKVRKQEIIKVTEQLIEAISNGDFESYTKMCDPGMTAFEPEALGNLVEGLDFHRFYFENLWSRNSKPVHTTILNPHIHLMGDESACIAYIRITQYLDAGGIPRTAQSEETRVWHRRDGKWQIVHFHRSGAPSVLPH

CaMKII
AC2 substrate phosphorylation by CaMKII (CN21b): The other 21mer peptides, CN21b and CN21c, had minimal or no effect
AC2 substrate phosphorylation by CaMKII (CN21c): The other 21mer peptides, CN21b and CN21c, had minimal or no effect
MAP2 phosphorylation by CaMKII (Western), 5 µM peptide (CN21c): Only CN21c failed to block MAP2 phosphorylation
CaMKII substrate- and auto-phosphorylation (Western) (CaM-KIIN): CaM-KIIN and CN21 block substrate- and T305 but not T286 auto-phosphorylation

PKC
phosphate incorporation by PKC (CN19 S12A): CN19 but not its S12A mutant was phosphorylated by PKC
phosphorylation rate by PKC relative to a MARCKS peptide substrate (CN19): with a phosphorylation rate of >50% compared to a peptide derived from a major PKC substrate protein
